From the Human Domainome abundance scans (Beltran et al. 2025)
± gives the uncertainty stated by the source.

B1: Myocardin, residues 363 to 406; numbered along this chain, Q8IZQ8 (parent)
chain: KPGPLPPNLDDLKVSELRQQLRIRGLPVSGTKTALMDRLRPFQD
B2: Formin-binding protein 4, residues 200 to 261; numbered along this chain, Q8N3X1 (parent)
chain: SGWQYDTQCSLAGVGIEMGDWQEVWDENTGCYYYWNTQTNEVTWELPQYLATQVQGLQHYQP

Variants of: B1
Assay: abundance fitness (aPCA) (normalised: wild type 0, dead -1); higher = more abundant; growth selection in yeast, the domain comes from the species named
Details: Homo sapiens

Row | Variant | abundance fitness
1 | KPGPLPPNLDDLKVSELRQQLRIRGLPVSGTKTALMDRLRPFQY [D44Y] | -0.379 ± 0.13
2 | KPGPLPPNLDDLKVSELRQQLRIRGLPVSGTKTALMDRLRPFQC [D44C] | -0.297 ± 0.21
3 | KPGPLPPNLDDLKVSELRQQLRIRGLPVSGTKTALMDRLRPFQL [D44L] | -0.494 ± 0.22
4 | KPGPLPPNLDDLKVSELRQQLRIRGLPVSGTKTALMDRLRPFQS [D44S] | -0.313 ± 0.15
5 | KPGPLPPNLDDLKVSELRQQLRIRGLPVSGTKTALMDRLRPFQF [D44F] | -0.325 ± 0.25
6 | KPGPLPPNLDDLKVSELRQQLRIRGLPVSGTKTALMDRLRPFQG [D44G] | 0 ± 0.064
7 | KPGPLPPNLDDLKVSELRQQLRIRGLPVSGTKTALMDRLRPFQQ [D44Q] | -0.206 ± 0.18
8 | KPGPLPPNLDDLKVSELRQQLRIRGLPVSGTKTALMDRLRPFQN [D44N] | -0.236 ± 0.23
9 | KPGPLPPNLDDLKVSELRQQLRIRGLPVSGTKTALMDRLRPFQR [D44R] | -0.03 ± 0.2
10 | KPGPLPPNLDDLKVSELRQQLRIRGLPVSGTKTALMDRLRPFQV [D44V] | 0.038 ± 0.13
11 | KPGPLPPNLDDLKVSELRQQLRIRGLPVSGTKTALMDRLRPFQE [D44E] | -0.031 ± 0.19
12 | KPGPLPPNLDDLKVSELRQQLRIRGLPVSGTKTALMDRLRPFQW [D44W] | -0.218 ± 0.34
13 | KPGPLPPNLDDLKVSELRQQLRIRGLPVSGTKTALMDRLRPFQA [D44A] | -0.086 ± 0.13
14 | KPGPLPPNLDDLKVSELRQQLRIRGLPVSGTKTALMDRLRPFQK [D44K] | 0.195 ± 0.14
15 | KPGPLPPNLDDLKVSELRQQLRIRGLPVSGTKTALMDRLRPYQD [F42Y] | -0.102 ± 0.1
16 | KPGPLPPNLDDLKVSELRQQLRIRGLPVSGTKTALMDRLRPMQD [F42M] | -0.242 ± 0.1
17 | KPGPLPPNLDDLKVSELRQQLRIRGLPVSGTKTALMDRLRPHQD [F42H] | 0.139 ± 0.12
18 | KPGPLPPNLDDLKVSELRQQLRIRGLPVSGTKTALMDRLRPSQD [F42S] | 0.03 ± 0.092
19 | KPGPLPPNLDDLKVSELRQQLRIRGLPVSGTKTALMDRLRPGQD [F42G] | -0.278 ± 0.057
20 | KPGPLPPNLDDLKVSELRQQLRIRGLPVSGTKTALMDRLRPRQD [F42R] | -0.12 ± 0.07
21 | KPGPLPPNLDDLKVSELRQQLRIRGLPVSGTKTALMDRLRPQQD [F42Q] | -0.06 ± 0.093

Row | Variant | abundance fitness
22 | KPGPLPPNLDDLKVSELRQQLRIRGLPVSGTKTALMDRLRPLQD [F42L] | 0.111 ± 0.068
23 | KPGPLPPNLDDLKVSELRQQLRIRGLPVSGTKTALMDRLRPVQD [F42V] | -0.211 ± 0.074
24 | KPGPLPPNLDDLKVSELRQQLRIRGLPVSGTKTALMDRLRPNQD [F42N] | -0.736 ± 0.36
25 | KPGPLPPNLDDLKVSELRQQLRIRGLPVSGTKTALMDRLRPEQD [F42E] | -0.148 ± 0.086
26 | KPGPLPPNLDDLKVSELRQQLRIRGLPVSGTKTALMDRLRPWQD [F42W] | -0.124 ± 0.065
27 | KPGPLPPNLDDLKVSELRQQLRIRGLPVSGTKTALMDRLRPKQD [F42K] | -0.09 ± 0.14
28 | KPGPLPPNLDDLKVSELRQQLRIRGLPVSGTKTALMDRLRPPQD [F42P] | -0.02 ± 0.086
29 | KPGPLPPNLDDLKVSELRQQLRIRGLPVSGTKTALMDRLRPFSD [Q43S] | -0.061 ± 0.083
30 | KPGPLPPNLDDLKVSELRQQLRIRGLPVSGTKTALMDRLRPFWD [Q43W] | -0.106 ± 0.074
31 | KPGPLPPNLDDLKVSELRQQLRIRGLPVSGTKTALMDRLRPFID [Q43I] | -0.109 ± 0.14
32 | KPGPLPPNLDDLKVSELRQQLRIRGLPVSGTKTALMDRLRPFKD [Q43K] | -0.503 ± 0.29
33 | KPGPLPPNLDDLKVSELRQQLRIRGLPVSGTKTALMDRLRPFRD [Q43R] | -0.232 ± 0.059
34 | KPGPLPPNLDDLKVSELRQQLRIRGLPVSGTKTALMDRLRPFND [Q43N] | -0.213 ± 0.18
35 | KPGPLPPNLDDLKVSELRQQLRIRGLPVSGTKTALMDRLRPFPD [Q43P] | -0.625 ± 0.1
36 | KPGPLPPNLDDLKVSELRQQLRIRGLPVSGTKTALMDRLRPFGD [Q43G] | -0.152 ± 0.064
37 | KPGPLPPNLDDLKVSELRQQLRIRGLPVSGTKTALMDRLRPFMD [Q43M] | -0.031 ± 0.07
38 | KPGPLPPNLDDLKVSELRQQLRIRGLPVSGTKTALMDRLRPFTD [Q43T] | 0.1 ± 0.094
39 | KPGPLPPNLDDLKVSELRQQLRIRGLPVSGTKTALMDRLRPFFD [Q43F] | 0.028 ± 0.21
40 | KPGPLPPNLDDLKVSELRQQLRIRGLPVSGTKTALMDRLRPFHD [Q43H] | -0.376 ± 0.17
41 | KPGPLPPNLDDLKVSELRQQLRIRGLPVSGTKTALMDRLRPFAD [Q43A] | -0.042 ± 0.1
42 | KPGPLPPNLDDLKVSELRQQLRIRGLPVSGTKTALMDRLRPFCD [Q43C] | -0.005 ± 0.13

Variants of: B2
Assay: as above
Details: Homo sapiens

Row | Variant | abundance fitness
43 | SGEQYDTQCSLAGVGIEMGDWQEVWDENTGCYYYWNTQTNEVTWELPQYLATQVQGLQHYQP [W3E] | -0.376 ± 0.11
44 | SGDQYDTQCSLAGVGIEMGDWQEVWDENTGCYYYWNTQTNEVTWELPQYLATQVQGLQHYQP [W3D] | -0.019 ± 0.1
45 | SGLQYDTQCSLAGVGIEMGDWQEVWDENTGCYYYWNTQTNEVTWELPQYLATQVQGLQHYQP [W3L] | -0.003 ± 0.055
46 | SGMQYDTQCSLAGVGIEMGDWQEVWDENTGCYYYWNTQTNEVTWELPQYLATQVQGLQHYQP [W3M] | 0.046 ± 0.068
47 | SGPQYDTQCSLAGVGIEMGDWQEVWDENTGCYYYWNTQTNEVTWELPQYLATQVQGLQHYQP [W3P] | -0.158 ± 0.08
48 | SGSQYDTQCSLAGVGIEMGDWQEVWDENTGCYYYWNTQTNEVTWELPQYLATQVQGLQHYQP [W3S] | 0.127 ± 0.058
